Measured values reported in the nanobody polyreactivity screen of Harvey et al. (2022).

Test: yeast display, Sf9 membrane polyspecificity reagent, FACS + sequencing; frameworks hold sequencing errors
Method in brief: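 Nanobodies came from a synthetic yeast display library in Saccharomyces cerevisiae BJ5465, induced with galactose for 36–48 hours and stained for 1 hour at 4 °C with 10% biotinylated, detergent-solubilized Sf9 membrane reagent. Cells were enriched on streptavidin microbeads and then FACS-sorted, with low and high (top ~1%) gates set on anti-HA fluorescence for expression and streptavidin fluorescence for reagent binding. Each polyreactivity label reflects the gate a clone came from. Genes were amplified by colony PCR, sequenced by MiSeq 2 × 250 and filtered by CDR length.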

Sequence	polyreactivity (PSR sort gate)
QVQLVESGGGLVQAGGSLRLSCAASGSILSYNTMGWYRHAPGKEREFVACITYSGSRTYYADSVKGRFTISRDKAKNTDYLQMNSLKPEDTAVYYCAKRNYYLLYWGQGTQVTVSS	high polyreactivity
QVQLVESGGGLVQAGGSLRLSCAASGSILSYYVMGWYRQAPGKERELVAAITSDGSTNYADSVKGRFTISRDNAKNTVYLQMNSQKPEDTAVYYCAAVIAWYYGVQDVYYLGLYDYWGQGTQVTVSS	low polyreactivity
QVQLVESGGGLVQAGGSLRLSCAASGSILTDNAMGWYRQAPGKERELVAAITSSGNTNYADSVKGRFTISRDNAKNTVYLQMKSLKPEDTAVYYCAAVSYYKHWTDWLPVGEDYWGQGTQVTVSS	low polyreactivity
QVQLVESGGGLVQAGGSLRLSCAASGSILTDYAMGWYRQAPGKERELVATISNGGSTNYADSVKGRFTISRDNAKNTVYLQMNSLKPEDTAVYYCNAEPGVPSWELDYWGQGTQVTVSS	low polyreactivity
QVQLVESGGGLVQAGGSLRLSCAASGSILTHYAMGRYRPAPGKERELVAAITWRGGSTYYADSVKGRFTISRDNAKNTVYLQMNSLKTEDTAVYYCAADLSYPDWSRYQWDMDYWGQGTQLTVSS	low polyreactivity
QVQLVESGGGLVQAGGSLRLSCAASGSILTYNFMGWYRQAPGKERELVASISWSGGRTYYADSVKGRFTISRDNAKNTVYLQMNSLKPEDTAAAYCAVSQSWYWYYASDYWGQGTQVTVSS	low polyreactivity
QVQLVESGGGLVQAGGSLRLSCAASGSILVDYAMGWYRQAPGKERELVASITRDGSTNYADSVKGRFTISRDNAKNTVYLQMNSLKPEDTAVYYCAAKYAWRLLEMYYWGQGTQVTVSS	low polyreactivity
QVQLVESGGGLVQAGGSLRLSCAASGSILVHYAMGWYRPAPGKEWELVAAISSVGSTNYADSVKGRFTMTRDNAKNTVYLQMNSLKPEDTAVYYCAARASRWYIAVDYWRQGTQVTVSS	low polyreactivity
QVQLVESGGGLVQAGGSLRLSCAASGSILVNMGWYRQPPGKERELVAAIRYGGGRTYYADSVKGRFTISRDNAKNTVYLQMNSLKPEDTAVYYCAASQGRSYYYWGQGTQVTVSS	low polyreactivity
QVQLVESGGGLVQAGGSLRLSCAASGSILVRYAMGWYRQAPGKERELVAAITYSGGSTYYADSVKGRFTISRDNAKNTVYLQMNSLKPEDTAVYYCAADVWWSYYRYDYWGQGTQVTVSS	low polyreactivity
QVQLVESGGGLVQAGGSLRLSCAASGSILVYNAMGWYRQAPGKERELVAAISNTGRTYYAVSVKGRFTISRDIAKNTVYVQMNSLKPEDTAVYYCAAARTSTGSYRYEYWGQGTQGTVSS	high polyreactivity
QVQLVESGGGLVQAGGSLRLSCAASGSILWLNAMGWYRQAPGKERELVADITRGGSTYYADSVKGRFTISRDNAKNTVYLQMNSLKPEDTAVYYCAAKRGKTYQRFDYWGQGTQVTVSS	high polyreactivity
QVQLVESGGGLVQAGGSLRLSCAASGSILWSYAMGWYRQAPGKERELVAAISGSTGSTYYADSVKGRFTISRDNAKNTVYLQMNSLKPEDTAVYYCAAEYYEDYDDYDYWGQGTQVTVSS	low polyreactivity
QVQLVESGGGLVQAGGSLRLSCAASGSILWSYAMGWYRQAPGKERELVAAITSGGSTYYADSVKGRFTISRDNAKNTVYLQMNSLKPEDTAVYYCAADRWRDFWFNEEYWGQGTQVTVSS	high polyreactivity
QVQLVESGGGLVQAGGSLRLSCAASGSILYISARGWYRQAPGKERELVASINSGASTNYADSVKGRFTISRDNAKNTVYLQMNSLKPEDTAVYYCAKSIVNPPHGFKDFDYWGQGTQVTLSS	low polyreactivity
QVQLVESGGGLVQAGGSLRLSCAASGSILYIYAMGWYRQAPGKVRELVAAITGSGGTTNYADSVKGRFTISRDNAKNTVYLQMNSLKPEDTAVYYCNIGSYYSCYDFWGQGTQVTVSS	low polyreactivity
QVQLVESGGGLVQAGGSLRLSCAASGSILYLNARGWYRQAPGKERELVAGISRRGGRTTYADSVKGRFTISRDNAKNTVYLQMNSLKPEDTAVSYCAVSTAYGYGYWGQGTQVTVSS	high polyreactivity
QVQLVESGGGLVQAGGSLRLSCAASGSILYLYAMGWYRPAPGKERELVAAITRIGGSTYYADSVKGRFTISRDNAKNTVYLQMNSLKPEDTAVYYCAAGGTARDDSWGQGTQVTVSS	low polyreactivity
QVQLVESGGGLVQAGGSLRLSCAASGSILYPYAMGWYRQAPGKERELVAAISRGGSTNYADSVKGRFTISRDNAKDTVYLQMNSLKPEDTAVYYCATAYTRFSQRYEYYVIYWQNDYWGQGTQVTVSS	low polyreactivity
QVQLVESGGGLVQAGGSLRLSCAASGSILYSNAMGWYRQAPGKERELVAVITWGGGSTYYADSVKGRFTISRDNAKNTVFLQMNSLKPEDTAVYYCAARARRGLRAYVELDYWGQGTQVTVSS	low polyreactivity
QVQLVESGGGLVQAGGSLRLSCAASGSILYSYPMGWYRQAPGKERELVAAITGDGASTTYADSVKGRFTISRDNAKNTVYLQLNSLKPEDTAVYYCKAGRESDDVSEGSQRICQFDYWGPGTQVTVSS	low polyreactivity

Sequence	polyreactivity (PSR sort gate)
QVQLVESGGGLVQAGGSLRLSCAASGSILYVYAMGWYRQAPGKEWELVAVITSGGSTNYADSVKGRFTISRDNAKNTVYLQMNSLKPEDTAVYYCAADPYSVYGGDYWGQGTQVTVSS	low polyreactivity
QVQLVESGGGLVQAGGSLRLSCAASGSILYYNAMGWYRQAPGKERELVAAISQRGASTYYADSVKGRFTISRDNAKNTVYLQMNSLKPEDTAVYYCAARTRLTADPRYGISSKMYYWGQGTQVTVSS	high polyreactivity
QVQLVESGGGLVQAGGSLRLSCAASGSILYYNAMGWYRQAPGKERELVAAITSGGSTYADSVKGRFTISRDNAKNTVYLQMNSLKPEDTAVYYCAADLDWYLSDYGTSLEHDYWGQGTQVTVSS	low polyreactivity
QVQLVESGGGLVQAGGSLRLSCAASGSILYYYAMGWYRQAPGKERELVAAITRSGGSTYYADSVKGRITISRDNAKNTVYLQMNSLKPEDTAVYYCAKDAHAYRDLDYWGQGTQVTVSS	low polyreactivity
QVQLVESGGGLVQAGGSLRLSCAASGSIQYYAMGWYRHAPGKERELVAAIRFSGGRTYYADSVKGRFTISRDNAKITVYLQMHSLKPEHTAVYYCAAYRSPRRSGAPSQGKFDYCGQGTQVTVSS	low polyreactivity
QVQLVESGGGLVQAGGSLRLSCAASGSIRHNTIGWYRQAPGKESEFVASISKRGGSTYYADSVKGRFTISRDNAKNTVYLQMNSLKPEDTAVYYCNAGAVTFVGRDYWGQGTQVTVSS	high polyreactivity
QVQLVESGGGLVQAGGSLRLSCAASGSIRSYAMGWYRQAPGKERELVAAITRSGGSTYYADSVKGRFTISRDNAKNTVYLQMNSLKPEDTAVYYCAAEVRGKSRSTRVSYRYDYWGQGTQVTVSS	high polyreactivity
QVQLVESGGGLVQAGGSLRLSCAASGSIRVTNDMGWYRQATGKERELVAAITSIGGSTNYADSVKGRFTISRDNAKNPVYLQMNSLKPEDTAVYYCNVYLGILYKYDYWGQGTQVTVSS	low polyreactivity
QVQLVESGGGLVQAGGSLRLSCAASGSIRYYAMGWYIQAPGKERELVAAISSRGTNTYYADSVKGRFTISRDNAKNTVYLQMNSLKPEDTAVYYCNAVVGLGYNYWGQGTQVTVSS	high polyreactivity
QVQLVESGGGLVQAGGSLRLSCAASGSIRYYAMGWYRQAPGKEREFVAAISRRGSSTNYADSVKGRFTISRDNAKNTVYLQMNRLKPEDTAVYYCARGLDVISYGYDYWGQGTQVTVSS	high polyreactivity
QVQLVESGGGLVQAGGSLRLSCAASGSISAPNAMGWYRQAPGKERELVATINSGGRTNYADSVKGRFTISRDNSKNTVYLQMNSLKPEDTAVYYCNTVFRGAYTYGDVSKYDYWGQGTQVTVSS	low polyreactivity
QVQLVESGGGLVQAGGSLRLSCAASGSISDIYAMGWYRQAPGKERELVASISSGGITNYADSVKGRFTISRDNAKNTVYLQMNSLKPEDTAVYYCAKDRYPISFFYQMEYWGQGTQVTVSS	low polyreactivity
QVQLVESGGGLVQAGGSLRLSCAASGSISEIYAMGWYRQAPGKERELVAAISWSGGRTYYADSVKGRFTISRDNAKNTVYLQMNSLKPEDTAVYYCAARYRGGYYFGYEPYYYWGQGTQVTVSS	high polyreactivity
QVQLVESGGGLVQAGGSLRLSCAASGSISFLYTMGWYRQAPGKERELVAAITGSTASTYYADSVKGRFTISSDYAKNTVYLQMKSLKPEDTAVYYCAAYWYAVGYWVSRDYWGQGTQVTVSS	low polyreactivity
QVQLVESGGGLVQAGGSLRLSCAASGSISGWYAMGWYRQAPGKERELVADISSIAGSTYYADCVKGRFTISRDNAKNTDSLQKNSLKPEDTAVYYGAADRGVDYEYDYWGQGTQVTVSS	low polyreactivity
QVQLVESGGGLVQAGGSLRLSCAASGSISGYYVMGWYRQAPGKERELVAAITWRGGSTYYADSVKGSFTISRDNAKNTVYLQMNSLKPEDTAVYYCNKVPGRRSTFEYWGQGTQVTVSS	high polyreactivity
QVQLVESGGGLVQAGGSLRLSCAASGSISHYAMGWYTQAPGTESELVAAISRRGGSTYYADSVKGRFTISRDNAKNTVYLQLNSLKPEDTAVYYCNAVRAGGYTEFNYWGQGTQVTVSS	high polyreactivity
QVQLVESGGGLVQAGGSLRLSCAASGSISKINAMGWYRQAPGKERELVAAINTGDSTYYADSVKGRFTISRDNAKNTVYLQMNSLKPEDTAVYYCAAEGSPTGYDYWGQGTQVTVSS	low polyreactivity
QVQLVESGGGLVQAGGSLRLSCAASGSISPQNVMGWYRQAPGKERELVAAITWTGTSTYADSVKGSFTISRDNAKNTVYLQMNSLKPEDTAVYYCAARYYAPRWFRYDYWGQGTQVTVSS	low polyreactivity
QVQLVESGGGLVQAGGSLRLSCAASGSISQKYVMGWYRKAPGKERELVAAIRSTGNTYYADSVKGRFTISRDNAKNTVYLQMNSLKPEDTAVYYCAARLYVLRWYPYDYWGQGTQVTVSS	low polyreactivity
